From patent US9951356B2, “Processes to prepare elongated 2-ketoacids and C6-C10 compounds therefrom via genetic modifications to microbial metabolic pathways” (Dow Global Technologies LLC, priority 2013, dated 2018)
Substitutions are numbered along the chain they refer to. Names may count otherwise.

Legend:
Format in all cases: biochemical
[1] = HTP LeuB kinetic assay, oxidative decarboxylation of 3-IPM; settings: for decrease in efficiency of capturing 3-IPM compared with the wild type enzyme: less efficient than wild type LeuB; for Km / kcat: substrate 3-IPM, mean ± S.D.
Protocol: (§1) The evaluation of the LeuB variants is performed in two steps using the high-throughput enzyme assay described below. Initially, all of the variants are screened for activity against a single high concentration of 3-IPM, 3-BM and 3-HM. Following the initial evaluation, detailed kinetic analysis is performed on a select number of variants to determine the maximal rate (kcat), Michaelis-Menten constant (KM), and the catalytic efficiency of the variant enzymes (kcat/KM).
(§2) A suitable spectrophotometric LeuB enzyme assay is adapted into a high-throughput format in 96-well plates for the kinetic evaluation of LeuB and its variants (shown in Table 1) against 3-isopropylmalate (3-IPM), 3-butylmalate (3-BM), and 3-hexylmalate (3-HM). See, for example, Hsu, Y.; Kohlhaw, G. B. “Leucine biosynthesis in Saccharomyces cerevisiae. Purification and characterization of beta-isopropylmalate dehydrogenase,” J. Biol. Chem., 1980, 255:7255-7260. Steady state kinetic parameters (kcat, KM and kcat/KM) for the oxidative decarboxylation of the three substrates by the variants are determined in these experiments.
(§3) The HTP kinetic assay involves incubating eight varied concentrations, of 3-IPM (from 0 to 1.2 mM) or 3-BM (from 0 to 2 mM) or 3-HM (from 0 to 2 mM), with 2 mM NAD^+ in LeuB assay buffer (50 mM HEPES, pH 8.0, containing 30 mM KCl and 5 mM MgCl2) at 25° C. The reaction is started by adding from 0.008 μg to 0.5 μg of LeuB variant which has been pre-diluted in assay buffer containing 1 mM DTT and 1 mg/mL BSA. The plate containing the 200 μl of reaction mixture is centrifuged at 2500×g for 15 sec and the absorbance change is followed spectrophotometrically at 340 nm on a BioTek™ plate reader maintained at 25° C. Initial velocity of the enzyme reaction is calculated from the rate of NADH production at 340 nm and using the extinction coefficient of NADH (6.22 mM^−1cm^−1). The kinetic parameters (kcat, KM and kcat/KM) of oxidative decarboxylation of 3-alkylmalate are determined by fitting the data to the Michaelis-Menten equation using nonlinear regression performed using the GraphPad Prism™ software. Table 3 lists the kinetic parameters of the wild type and engineered variants against the three substrates. The amount of enzyme in the reaction mixture is determined using the 660 nm total protein assay kit acquired from Pierce Biotechnology Inc.™, using BSA as the standard.

[2] = HTP screening assay of LeuB variants, 3-HM; settings: for Specific activity, 3-HM: 1 mM 3-HM, 2 mM NAD+, pH 8.0, 25° C., mean of duplicates; for activity against 3-HM compared with the wild type enzyme: screening at single high concentration
Protocol: as §1, §2
(§4) The HTP screening assay involves incubating 750 micromoles (μM) of 3-IPM, 1 mM 3-BM or 1 mM 3-HM, with 2 mM nicotinamide adenine dinucleotide (NAD^+) in LeuB assay buffer (50 mM 4-(2-hydroxyethyl) piperazine-1-ethanesulfonic acid (HEPES), pH 8.0, containing 30 mM potassium chloride (KCl) and 5 mM magnesium chloride (MgCl2)) at 25° C. The reaction is started by the addition at 25° C. of working enzyme stock containing from 0.3 microgram (μg) to 1.1 μg of LeuB variant diluted in assay buffer containing 1 mM DTT and 1 milligram per milliliter (mg/mL) bovine serum albumin (BSA). The plate containing the 200 μL of reaction mixture is centrifuged at 2500×g for 15 seconds (sec) and the absorbance change of the reaction mixture is followed spectrophotometrically at 340 nm on a BioTek™ plate reader, pre-equilibrated at 25° C. Initial velocity of the enzyme reaction is calculated from the rate of NADH production at 340 nm and using the extinction coefficient of NADH (6.22 per millimolar per centimeter (mM^−1cm^−1)). The activity of all the variants is normalized with the amount of enzyme present in the reaction mixture and expressed as nanomoles per minute per microgram (nmol·min^−1·μg^−1) (Table 2). Protein concentrations for normalizing the activities are determined using the 660 nm total protein assay kit acquired from Pierce Biotechnology Inc.™, available from Thermo Fisher Scientific, Inc., and using BSA as the standard.

[3] = HTP screening assay of LeuB variants, 3-IPM; settings: 750 μM 3-IPM, 2 mM NAD+, pH 8.0, 25° C.; mean of duplicates
Protocol: as §1, §2, §4

[4] = HTP LeuB kinetic assay, oxidative decarboxylation of 3-BM; settings: for Km / kcat: substrate 3-BM, mean ± S.D.
Protocol: as §1, §2, §3

[5] = HTP LeuB kinetic assay, oxidative decarboxylation of 3-HM; settings: for Km / kcat: substrate 3-HM, mean ± S.D.; for increase in efficiency of capturing 3-HM compared with the wild type enzyme: more efficient than wild type LeuB
Protocol: as §1, §2, §3

[6] = HTP screening assay of LeuB variants, 3-BM; settings: 1 mM 3-BM, 2 mM NAD+, pH 8.0, 25° C.; mean of duplicates
Protocol: as §1, §2, §4

B1: L96A: E. coli isopropylmalate dehydrogenase (LeuB) with Leu-96 replaced with alanine (protein, UniProt P30125 2-363, looked up, variant L96A)
3-isopropylmalate …: SKNYHIAVLPGDGIGPEVMTQALKVLDAVRNRFAMRITTSHYDVGGAAIDNHGQPLPPATVEGCEQADAVLFGSVGGPKWEHLPPDQQPERGALAPLRKHFKLFSNLRPAKLYQGLEAFCPLRADIAANGFDILCVRELTGGIYFGQPKGREGSGQYEKAFDTEVYHRFEIERIARIAFESARKRRHKVTSIDKANVLQSSILWREIVNEIATEYPDVELAHMYIDNATMQLIKDPSQFDVLLCSNLFGDILSDECAMITGSMGMLPSASLNEQGFGLYEPAGGSAPDIAGKNIANPIAQILSLALLLRYSLDADDAACAIERAINRALEEGIRTGDLARGAAAVSTDEMGDIIARYVAEGV
In the case of B1, the “decrease in efficiency of capturing 3-IPM compared with the wild type enzyme” value (shortened to “decrease in efficiency”) [1] is reported as “approximately 4 fold”, the Km [1] is reported as 16 ± 10 µM and the kcat [1] is reported as 11.1 ± 2.57 s⁻¹. For the same molecule, the “Specific activity, 3-HM” value [2] was 0.77 nmol/min/µg, the “activity against 3-HM compared with the wild type enzyme” value [2] was “higher activity than the wild type enzyme” and the “Specific activity, 3-IPM” value [3] was 15.4 nmol/min/µg. For the same molecule, the “efficiency of capturing 3-BM compared with the wild type enzyme” value ([4]; in words) was “modestly poor”, the Km [4] was 130 ± 20 µM and the kcat [4] was 7 ± 0.367 s⁻¹. For the same molecule, the Km [5] was 240 ± 40 µM, the kcat [5] was 0.683 ± 0.0083 s⁻¹ and the “Specific activity, 3-BM” value [6] was 9.48 nmol/min/µg.

B2: L96V: E. coli LeuB variant with Leu-96 replaced with valine (protein, UniProt P30125 2-363, looked up, variant L96V)
3-isopropylmalate …: B1 3-isopropylmalate … with A95V
For B2, the “Specific activity, 3-IPM” value [3] was 1.53 nmol/min/µg.

B3: L96G/V198G: E. coli LeuB variant with Leu-96 and Val-198 both replaced with glycine (protein, UniProt P30125 2-363, looked up, variant L96G V198G)
3-isopropylmalate …: B1 3-isopropylmalate … with A95G, V197G
With B3 the “Specific activity, 3-HM” value [2] was 3.6 nmol/min/µg, the “activity against 3-HM compared with the wild type enzyme” value [2] was “higher activity than the wild type enzyme” and the “Specific activity, 3-IPM” value [3] was 0.02 nmol/min/µg. For the same molecule, the “Specific activity, 3-BM” value [6] was 0.08 nmol/min/µg.

B4: L96G: E. coli LeuB variant with Leu-96 replaced with glycine (protein, UniProt P30125 2-363, looked up, variant L96G)
3-isopropylmalate …: B1 3-isopropylmalate … with A95G
For B4, the “decrease in efficiency” value [1] was 100 fold, the “Specific activity, 3-HM” value [2] was 9.5 nmol/min/µg and the “activity against 3-HM compared with the wild type enzyme” value [2] was “higher activity than the wild type enzyme”. The “Specific activity, 3-IPM” value [3] was 2.90 nmol/min/µg, the Km [4] was 1900 ± 200 µM and the kcat [4] was 3.12 ± 0.1 s⁻¹. The “increase in efficiency of capturing 3-HM compared with the wild type enzyme” value (“increase in efficiency of capturing 3-HM” below) [5] was 80 fold, the Km [5] was 30 ± 3 µM and the kcat [5] was 7.58 ± 0.167 s⁻¹. The “Specific activity, 3-BM” value [6] was 1.5 nmol/min/µg.

B5: L96V/V198G: E. coli LeuB variant with Leu-96 replaced with valine and Val-198 with glycine (protein, UniProt P30125 2-363, looked up, variant L96V V198G)
3-isopropylmalate …: B1 3-isopropylmalate … with A95V, V197G
For B5, the “Specific activity, 3-IPM” value [3] was 0.05 nmol/min/µg and the “Specific activity, 3-BM” value [6] was 0.04 nmol/min/µg.

B6: V198G: E. coli LeuB variant with Val-198 replaced with glycine (protein, UniProt P30125 2-363, looked up, variant V198G)
3-isopropylmalate …: B1 3-isopropylmalate … with A95L, V197G
With B6 the “Specific activity, 3-HM” value [2] was 0.5 nmol/min/µg, the “Specific activity, 3-IPM” value [3] was 4.66 nmol/min/µg and the “Specific activity, 3-BM” value [6] was 1.83 nmol/min/µg.

B7: Wild type LeuB: native E. coli LeuB (isopropylmalate dehydrogenase), SEQ ID 2, histidine-tagged (protein, UniProt P30125 2-363, looked up)
3-isopropylmalate …: B1 3-isopropylmalate … with A95L
With B7 the “catalytic efficiency for 3-IPM relative to that for 3-HM” value ([1]; higher for 3-IPM than for 3-HM) was 1,000 fold, the Km [1] was 9 ± 3 µM and the kcat [1] was 23.92 ± 2.02 s⁻¹. For the same molecule, the “Specific activity, 3-HM” value [2] was 0.68 nmol/min/µg, the “Specific activity, 3-IPM” value [3] was 18.3 nmol/min/µg and the Km [4] was 38 ± 13 µM. It also gave a kcat [4] of 3.65 ± 0.333 s⁻¹, a Km [5] of 160 ± 20 µM and a kcat [5] of 0.433 ± 0.033 s⁻¹. The “Specific activity, 3-BM” value [6] was 4.3 nmol/min/µg.

B8: L96G/V198A: E. coli LeuB variant with Leu-96 replaced with glycine and Val-198 with alanine (protein, UniProt P30125 2-363, looked up, variant L96G V198A)
3-isopropylmalate …: B1 3-isopropylmalate … with A95G, V197A
For B8, the “Specific activity, 3-HM” value [2] was 20.4 nmol/min/µg, the “activity against 3-HM compared with the wild type enzyme” value [2] was “higher activity than the wild type enzyme” and the Km [4] was 3300 ± 400 µM. The kcat [4] was 4.47 ± 0.35 s⁻¹, the “increase in efficiency of capturing 3-HM” value [5] was 102 fold and the Km [5] was 50 ± 0.5 µM. The kcat [5] was 14.6 ± 0.383 s⁻¹ and the “Specific activity, 3-BM” value [6] was 1.49 nmol/min/µg.

B9: L96A/V198A: E. coli LeuB variant with Leu-96 and Val-198 both replaced with alanine (protein, UniProt P30125 2-363, looked up, variant L96A V198A)
3-isopropylmalate …: B1 3-isopropylmalate … with V197A
For B9, the “Specific activity, 3-HM” value [2] was 3.3 nmol/min/µg, the “activity against 3-HM compared with the wild type enzyme” value [2] was “higher activity than the wild type enzyme” and the “Specific activity, 3-IPM” value [3] was 0.65 nmol/min/µg. For the same molecule, the “increase in efficiency of capturing 3-HM” value [5] was 12 fold, the Km [5] was 80 ± 10 µM and the kcat [5] was 2.65 ± 0.067 s⁻¹. The “Specific activity, 3-BM” value [6] was 1.26 nmol/min/µg.

B10: V198A: E. coli LeuB variant with Val-198 replaced with alanine (protein, UniProt P30125 2-363, looked up, variant V198A)
3-isopropylmalate …: B1 3-isopropylmalate … with A95L, V197A
With B10 the “decrease in efficiency” value [1] was 1,000 fold, the “Specific activity, 3-HM” value [2] was 2.5 nmol/min/µg and the “activity against 3-HM compared with the wild type enzyme” value [2] was “higher activity than the wild type enzyme”. The “Specific activity, 3-IPM” value [3] was 2.83 nmol/min/µg, the “increase in efficiency of capturing 3-HM” value [5] was 5 fold and the Km [5] was 110 ± 10 µM. The kcat [5] was 1.62 ± 0.55 s⁻¹ and the “Specific activity, 3-BM” value [6] was 1.81 nmol/min/µg.
